In the DeepSol protein solubility set:

Assay: soluble on expression in E. coli; label from the status in PepcDB or PDB records

| Sequence | soluble on expression in E. coli |
| --- | --- |
| MDTHKVFVNRIINMRKIKLIGLDMDHTLIRYNSKNFESLVYDLVKERLAESFHYPEEIKKFKFNFDDAIRGLVIDSKNGNILKLSRYGAIRLSYHGTKQISFSDQKKIYRSIYVDLGDPNYMAIDTSFSIAFCILYGQLVDLKDTNPDKMPSYQAIAQDVQYCVDKVHSDGTLKNIIIKNLKKYVIREKEVVEGLKHFIRYGKKIFILTNSEYSYSKLLLDYALSPFLDKGEHWQGLFEFVITLANKPRFFYDNLRFLSVNPENGTMTNVHGPIVPGVYQGGNAKKFTEDLGVGGDEILYIGDHIYGDILRLKKDCNWRTALVVEELGEEIASQIRALPIEKKIGEAMAIKKELEQKYVDLCTRSIDESSQQYDQEIHDLQLQISTVDLQISRLLQEQNSFYNPKWERVFRAGAEESYFAYQVDRFACIYMEKLSDLLEHSPMTYFRANRRLLAHDIDIAAALEHHHHHH | soluble |
| MSYFSHQDPNNPESHINFTMAQMEIQRWTLLISNPEADASTLVMELKTVTGESKHFINQAINAMWALMKLPILRVVVETHFHVRIPYLARIMQAVKQAKPELWDELDHRIAEKLTPRIAGQALMEASALAGLITRWIKELDPTFTGKKRGPKGSDGTLTFRHVDGRTYISGNIDGVTGKLFQKALEKVKQKGEDLARALVTFLAGRTKVKIVSAVYTPLVGGVSWIPGVGFLSQEESRKLGKTASKVIDLDTIATRVENGYTPSPELRLYVMGRDGTCRHPGCTVSADNCQIDHVIPFGEGGLTVAWNLQCLCAHHHNMKTDGRIQAAIDSMGRVAWIGPCNRTVVTEPVGPLAQEMPTGQWGQTLEARMEKTFEKLRSSLEVLDDLEHHHHHH | soluble |
| MSLDKEYRITLLHNVAHYGHAEATRILLAAGARVNAVNGEGNTPLFAAVHEGHDDVARILLDAGADVTIANSYWYTPLREACRRGNTGMVRLLLEKGADVNITDNKGFTPLHAAVSAEALEAATLILDSGADINIAGRYGDTPLHYAVGLGYEEFVRLFLARGADPTIRNDRGLTPRQLAEERGFASIVELFRNWGKNTEGHHHHHH | soluble |
| MKFLYFGDPHIRGTNPRNRKDNYKEALIAKLREIFALAKYKGVTAIIQPGDTFDRPEVTTSVLLEFAKVLKESPVPIYTTAGNHDIYGYNLATYERTSLRVLELIVPQLTVINDPGQAQMFHQDGNHVQLTFTPYSDQIDKAGYGYSPEIIEDYESTKIHIAHGMLLDHDPPFDRYTKVQDVKTEADLVLCGHDHTGFGIYERSDGKVFVNDGSLTRLSASEAEMRRQISVLLIDVKAPRVFDLERIPLQSAKPGEEVLDRSRIEAEKKRAYAMEEFASLIQTETGEDVLVDINTIVESIAKTQSINSDVVEIALTKIAEAKEGLRT | not soluble |
| MNDKQYQEIASLLERLSRNNAMSIYGDWIKNSFSKELIASISVLTHNDLKILDSLFKQDLSISDVVSRTGLSQGGVSRRVNMMSEKGIIHKYQNDKNKKTVFLKLNPIGQELFDFHRKLHDHIKEIFFQKTQRFNEEQIRVVISFLEAILT | soluble |
| MSLTDNKTVPNGAPILYIVPTPIGNLGDITQRALDVLASVDMIAVEDTRHTGKLLAHFNISTKTFALHDHNEQQKAQVLVDKLLSGLSIALVSDAGTPLISDPGYHLVTQCRQAGVKVVPLPGPCAVITALSASGLPSDSFSFEGFLPAKSKARKDKLLEIAKVSRTCIFYESPHRICESLQDMLDVLGGEREVVLARELTKTFETIQGMPLAELITWIAEDDNRKKGEMVLLVHGYRDAGEQQLPDEALRTLTILTKELPLKKAAALVAEIHQLKKNALYKWGLENLGEEGHHHHHH | soluble |
| MGHHHHHHSHRNRARFAARKQLVLNLVSSPGSGKTTLLTETLMRLKDSVPCAVIEGDQQTVNDAARIRATGTPAIQVNTGKGCHLDAQMIADAAPRLPLDDNGILFIENVGNLVCPASFDLGEKHKVAVLSVTEGEDK | soluble |
| MSLNEITVSLDVIIKNKNVMVSSLSVAKAFDRQHSHILRSIEDIKRDWDSLIQSKNGLNRNIIPLKSQGNKQVIFTDYFKESEYIAENGRLVKFFEMNRNGFMLLANSFNGKRILPIKLAFIERFDELEHITLEQAKETENRKNLNQAIKESPHFKPFYYSRFSDFLCQLITHNKYKTVKKLREDKGYYGKQFSKIPLKSMLDSEEDLKRLQKLENSIIAWLEIDYSFREIKAFLTKEKAQPLPTKEGHHHHHH | not soluble |
| MSAQVQDLTPIKGVTYYYPPHDAVLVFKDGAAEIPYGGLPVPLLEEDYASLDGEPSYDAVGRGVYQTLRTNPDCIHCAAYATLLRDAYPHYLAELASHAIMLDSKDVEVPYIDRKIVSLKVLSLLEPDNAGLPLEIGRAYLDRGLRLSALHMSTVSIYRAEHFLRRALELTPEDGRALRLLGEVCYLLGKYEEAASCWLDTLDLADADEAERFRVRLARISEGRLPLIAPVDYLEAIGAAFTCFHTGDYEEAVAILQDVLMDGIFCAEFPIADIHCVIGKSFVQLDMPRYAEESFRAALQLDPAHEESLACLRKVTGEELEHHHHHH | soluble |
| MTKKYDLHCHSTASDGVLSPTELVHRAYAQGVNVLALCDHDTIAGIDEAEIAAKEVGIELITGVEISTNWEGRGIHIVGLNFDKTHPKMTALLQSQKALREKRAVEIGDKLEKAGIPNAYDGAKALADGEVTRAHYARYLVQIGKVSNDGQAFKRYLGQGKSAFVKAEWADIPTAIETIHAAGGIAIIAHPLRYNMTGKWVRKLIVDFKAWGGDGMEMADCGQTKDQRQMLARWAKEFDLQGSVGSDFHFPCGWIELGKNLDLVDSVIPVWEKF | not soluble |
| MKYFFETRLGETRYRLADGSLLCKDVPIGRTGKQLYGADDLPKLKPDKFVEIVVTRSPEQVFHPATLASFEGMSITILHPEDENGNVRLVNPENWKVLAVGHLQNVRRGTGEQSDLMLADLIVKDESAIQLIEDGLREVSCGYDAEYEQTEPGKAEQVDITGNHVALVPKGRAGNRCAIGDRDTMANQKKNWWNRMRAAIKTGDADTMNELVESAPASVTGDEGDLPQGVNLNINLSPQQPLPDKAPEMGGDPTGDSDDDLKTLLKALLAKLERNATGDNDNKPDDNPTGDGEDDEEETTITGDSAWRAEVIVPGIDLSRKMKPTAFKREVLASADKTLVRQIVGDADIRKLPKQSVDMAFNAVSEVAKGRNTRATTGDAQRLNMGMTSIASLNKQNAEFWANRKG | not soluble |
| MPSTADTVEVDFITPRHLAGGGDPAWITVPLHRACGWSHGHDPLMPRALLSSPDQKALLRLEPDPDGQWWTLNHTAESGRPAWYASFGARTPVELIAAFTDALTAPAPPTDAPCDPFEPLRQIAWSAPAVGADGLVSPDGTAYVQRQGSADGPGAWFVTVTLGPRPVWQARFDAHTPEHLVAAFTTALADPKPALRTDSGRSLPTRNPNVVTRKTTDVLAVDIAGALEERVQTLTTRHPLPPANPMPPTPPPTRHGRSRLEHHHHHH | soluble |
| MDTIAFAYMGGKEYEWLFFEVYDRVRRFYRDVRLPINIVYAGKIILPPGTLIRVETASGFVNMYSFEAVVEALYGKLVEMRDDVNDDSITKIFGITTFPIGSRDRYFDIYKKYLGIQVNVGDYHVLALSIKPFFTENKYLFIERVFKGVLHEIGHLYGLSHCHEDCVMNPPKDIKDWDLRTPTYCNTCLRKLKNKEELMPKLQLLEHHHHHH | soluble |
| MKVVQRKIKKSGKDRKRIGRGGSAYILDKRRITAVQNMKREAEKEKLRERFAAAANMPKDVVLGASVVTVIGNGEISIENYRGILEYTGELIRVQTKKGQIQVHGKGLQIEYYLNDEMKITGKIHTLEYEMLEHHHHHH | soluble |
| GHMEVTLIVFHAGSLSVPFQEVEKEFSEYAERNLGIKVSFQDEASGSVMAVRKVTDLGRKADVIGVADYTLIPQLLIPNYTDFYVLFATNEIVIAFTDKSRYVEEMKSNPDKWYEILAREDVRFGFSDPNQDPCGYRSLMVIKLADLYYGKEIFKELIEENTNIYSNGTQIYAPKEITVNPGKIVIRPKETDLLGLVESGSIDYIFIYKSVAKQHNLSYITLPSEINLGDFSKEKFYGQISITLGSTGKTIKAKPIVYGVTVLKDAPNREVAIEFLRYLLSENGKRIFEKNHQDFL | soluble |
| MVHVKDVLADQLLANANDPSWYMPFSDAVKDLSEREAFWKPNEECNSIAEIVQHLLYWNSTWQTRYKESHVNAVPAIGDNNKSFMLSDNQTFDELREKLLEKLLQWQTLINEEKVESDVVGFPVSAKWWEVLANVTTHNAYHIGQIIYIRKLQQSFDNK | not soluble |
| MSLSNDYPLVSIIIPTYNSSDYITETLTKLEKQTYPNFEIVIVNDGSKDNTSSVLREYGLTHSRLIIINKENGGVSSARNTGIRKAQGQFICFMDDDDEIDPNYLLKMYSRQHETGGDAIYCGLYGHHIKNGVTYSPINTDFNEGSLLFDFFYKKVRFHIGCLFIRKQLLEDNNLFFDEDLRLGEDLDFIYRLLITCDMYAVPYYMYKHNYRENSLMNSCRTITHYRHESFAHERIYSSVMQLYKGNRKEEIHTLLSKNRTYHKTRYLWNVLLNGDFELLNQLVESNEKELKDCNLLGKRDKRRAKILASKNYILWRMVRLVNRKKNKEGHHHHHH | soluble |
| MQLKRVAEAKLPTPWGDFLMVGFEEIATGHDHLALVYGDISGSVPVLARVHSECLTGDALFSLRCDCGFQLEAALGHIAEEGRGVLLYHRQEGRNIGLLNKIRAYALQDLGADTVEANHQLGFAADERDFTLCADMFKLLDVDEVRLLTNNPQKVKILNEAGINIVERVPLIVGRNPKNEHYLATKAAKMGHILDMKLEHHHHHH | not soluble |
| MSANGCCCCGGVDSREQKLNEIIEKYKNTKGALVPVLHEAQEVYGYLPLEVQKKIAEGLNIPLAEVYGVVTFYTQFSLNPKGKYKIQVCMGTACYVKGSGAILEKLKEKLEIDVGECTSDGKFSLEACRCIGACGLAPVIMINDDVYGRLVPDDIEGIIEKYKKE | soluble |
| MSLDETPTIHILWINAGLSCDGDSVALTAAMQPSIEEIVLGVLPGLPKIAVHWPLIDFECGPVGGSDTFIEWFFKGERGEIDPFVLVVEGSIPNESIKPEGYWCGFGDNPETGQPITTSEWIDRLAPKALAVVAIGTCATYGGIHAMAGNPTGAMGVPDYLGWDWKSQAGIPIVCVPGCPIQPDNFSETLTYLLYQAAGAAPMIPLDDKLRPTWLFGATEGHHHHHH | soluble |
| MGSDKIHHHHHHMKYTYREAGVDVERGESFAKTIKSAVKLPEWVMKEPTGYASILTITTPPVVVTADGIGTKLILHRKHGTWRYAAEDLVGMNYNDLVCVGARPVAFLDYLGVERISEEHESFIKELVNVLDSVDVKLVGGETAEMPDVYRGDWDAVGFAVGVLEKRIPVDKIKEGDVIVGIPSSGFHSNGWSLIRRIIKEESIKIEELPFELLKGTRIYREVIELFDLVKGIAHVTGGGVVRALKRVLGKLGAHVSLPKRDFVDWILKYVDFNEAVNTFNMGVGMFLIVEKQKVDEVLARVDGTVVGKVSSDWRIEYGGEGG | not soluble |
| MGSDKIHHHHHHWIAFAGNMNTTIDNESDELKAIDYKDLEVKEKLGEGASGEVYRAMYGGSDVALKLFRGAATSDGLPEDEIKVMQRLGPDENSVSILGSVVGAPEGQLAALLPLVPPSFTILGNPPTFDSCTRDTYPKDKTFSLRTAIEILEAIARVCAHLHSRGLSHGDLYAHNILVQIGVDGEPTRTKLSDYGAASFSSVLKPHQVALLERIEVRAFGALAEELMDRLEEADAEGVAHRLSSVIVKSMRADVASRPSFSEIHQEMVAFLKEV | not soluble |
| MNQELKLRPLEREDLKFVHELNNNAHIMSYWFEEPYEAFVELQDLYDKHIHDQSERRFIVEKDNEMVGLVELVEIDYIHRRTEFQIIIDPNYQGYGYAVEATRLAMDYAFAVLNMHKIYLVVDKENEKAVHVYKKVGFMVEGELIDEFFVDGNYHNAIRMCMFQKQYFENK | not soluble |
